Test results published in article PMC3162248.

Experiments:
purified protein [1] = substrate: NC(=O)c1ccc[n+]([C@@H]2O[C@H](COP(=O)(O)O)[C@@H](O)[C@H]2O)c1; test: purified protein; assay type: biochemical, Mus musculus; details: 1 mM ATP, 20 mM MgCl2, 20 mM HEPES-KOH pH 7.4, 37°C
purified protein [2] = substrate: Nc1ncnc2c1ncn2[C@@H]1O[C@H](COP(=O)(O)OP(=O)(O)OP(=O)(O)O)[C@@H](O)[C@H]1O; test: purified protein; assay type: biochemical, Mus musculus; details: 1 mM NMN, 20 mM MgCl2, 20 mM HEPES-KOH pH 7.4, 37°C

| Protein | Km (purified protein [1]) | Km (purified protein [2]) |
| --- | --- | --- |
| Nmnat1 (mouse Nmnat1) (Mus musculus) (protein) MDSSKKTEVVLLACGSFNPITNMHLRLFELAKDYMHATGKYSVIKGIISPVGDAYKKKGLIPAHHRIIMAELATKNSHWVEVDTWESLQKEWVETVKVLRYHQEKLATGSCSYPQSSPALEKPGRKRKWADQKQDSSPQKPQEPKPTGVPKVKLLCGADLLESFSVPNLWKMEDITQIVANFGLICITRAGSDAQKFIYESDVLWRHQSNIHLVNEWITNDISSTKIRRALRRGQSIRYLVPDLVQEYIEKHELYNTESEGRNAGVTLAPLQRNAAEAKHNHSTL | 27.6 µM | 50.4 µM |
| Nmnat1 (mouse Nmnat1) (Mus musculus; W170A) (protein) MDSSKKTEVVLLACGSFNPITNMHLRLFELAKDYMHATGKYSVIKGIISPVGDAYKKKGLIPAHHRIIMAELATKNSHWVEVDTWESLQKEWVETVKVLRYHQEKLATGSCSYPQSSPALEKPGRKRKWADQKQDSSPQKPQEPKPTGVPKVKLLCGADLLESFSVPNLAKMEDITQIVANFGLICITRAGSDAQKFIYESDVLWRHQSNIHLVNEWITNDISSTKIRRALRRGQSIRYLVPDLVQEYIEKHELYNTESEGRNAGVTLAPLQRNAAEAKHNHSTL | 1400 µM | – |
| Nmnat1 (mouse Nmnat1) (Mus musculus; H24A) (protein) MDSSKKTEVVLLACGSFNPITNMALRLFELAKDYMHATGKYSVIKGIISPVGDAYKKKGLIPAHHRIIMAELATKNSHWVEVDTWESLQKEWVETVKVLRYHQEKLATGSCSYPQSSPALEKPGRKRKWADQKQDSSPQKPQEPKPTGVPKVKLLCGADLLESFSVPNLWKMEDITQIVANFGLICITRAGSDAQKFIYESDVLWRHQSNIHLVNEWITNDISSTKIRRALRRGQSIRYLVPDLVQEYIEKHELYNTESEGRNAGVTLAPLQRNAAEAKHNHSTL | – | 47.3 µM |
